How the values were obtained:
[1] = biological target: the molecule itself; experiment: SEC; 4C1 at the higher protein concentration (12-mer peak, ~500 kDa); 250 mM NaCl, 50 mM Tris pH8, 1 mM DTT
[2] = biological target: the molecule itself; experiment: SEC; 4C1 at much lower protein concentration: a center fraction of the 12-mer peak injected again on the same column (hexamer peak, ~250 kDa)

B1: 4C1, core fragment of S. pombe Mcm4 (domain or fragment)
chain: ISDEEVEKIQQVSKRDDIYDILSRSLAPSIYEMDDVKKGLLLQLFGGTNKSFHKGASPRYRGDINILMCGDPSTSKSQILKYVHKIAPRGVYTSGKGSSAVGLTAYITRDQDTKQLVLESGALVLSDGGICCIDEFDKMSDATRSILHEVMEQQTVTVAKAGIITTLNARTSILASANPIGSKYNPDLPVTKNIDLPPTLLSRFDLVYLILDRVDETLDRKLANHIVSMYMEDTPEHATDMEVFSVEFLTSYITYARNNINPVISEEAAKELVNAYVGMRKLGEDVRASEKRITATTRQLESMIRLSEAHAKMHLRNVVEVGDVLEAARLIKTAIKDYATD
- stoichiometry N [1]: 12
- stoichiometry N [2]: 6
